Test results as given in paper PMC9352680, “A comprehensive thermodynamic model for RNA binding by the Saccharomyces cerevisiae Pumilio protein PUF4”.

T1: PUF4 RNA-binding domain (Saccharomyces cerevisiae, UniProt P25339 537-888)
T1 sequence: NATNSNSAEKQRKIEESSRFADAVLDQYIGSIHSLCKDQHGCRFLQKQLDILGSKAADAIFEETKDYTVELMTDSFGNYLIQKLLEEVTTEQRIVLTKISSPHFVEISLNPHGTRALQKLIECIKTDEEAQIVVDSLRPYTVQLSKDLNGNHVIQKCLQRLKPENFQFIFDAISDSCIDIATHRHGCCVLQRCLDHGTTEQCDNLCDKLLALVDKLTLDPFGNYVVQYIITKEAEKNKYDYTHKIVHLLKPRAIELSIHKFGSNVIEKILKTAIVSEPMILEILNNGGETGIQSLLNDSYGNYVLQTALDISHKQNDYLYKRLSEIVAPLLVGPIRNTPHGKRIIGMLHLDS


The binders below were run against T1, PUF4 RNA-binding domain (assay: Mg; RNA-MaP; 20 mM Na-HEPES pH 7.4, 30 mM KOAc, 0.75 mM MgCl2, 0.1% Tween-20, 5% glycerol, 0.1 mg/mL BSA, 2 mM DTT; 25 C; 0.0125-409.6 nM protein). Conditions: tags: N-His6-TEV cleaved; C-SNAP kept, Cy3B-labelled; label: tethered on chip by stalled RNA polymerase.

Binder | Kd
ACAAACCUUAUAUUAUUAAUACAAAC (ssRNA) [Id_ii_S3_P5E.3_K5.2_C5.2_H5.2_A5.1_F5.1_T5.2_[T11A]_[A12T]] | 459 nM
UCUCUUGGCAUUAUUAUCUCUU (ssRNA) [Ib_S1_P5E.1_K5.1_C5.1_H5.1_[T1G]_[T3C]_A5.1_F5.1_T5.1] | 1040 nM
ACAAACUAUAUAUUAUUAUUACAAAC (ssRNA) [Id_ii_S3_P5E.3_K5.2_C5.2_[C-2T]_[T-1A]_H5.2_A5.1_F5.1_T5.2_[A12T]] | 19.2 nM
ACAAACCAUAUAUUAUUAAAACAAAC (ssRNA) [Id_ii_S3_P5E.3_K5.2_C5.2_[T-1A]_H5.2_A5.1_F5.1_T5.2_[T11A]] | 631 nM
ACAAACCAUAUAUUAUUAAUACAAAC (ssRNA) [Id_ii_S3_P5E.3_K5.2_C5.2_[T-1A]_H5.2_A5.1_F5.1_T5.2_[T11A]_[A12T]] | 157 nM
ACAAACUUUAUAUUAUUAGCACAAAC (ssRNA) [Id_ii_S3_P5E.3_K5.2_C5.2_[C-2T]_H5.2_A5.1_F5.1_T5.2_[T11G]_[A12C]] | 82.9 nM
UCUCUUCGUGUUAUUAUCUCUU (ssRNA) [Ib_S1_P5E.1_K5.1_C5.1_H5.1_[T1C]_[A4G]_A5.1_F5.1_T5.1] | 2300 nM
UCUCUUCAUAUUAUUAUCUCUU (ssRNA) [Ib_S1_P5E.1_K5.1_C5.1_H5.1_[T1C]_[G2A]_A5.1_F5.1_T5.1] | > 2300 nM
ACAAACUCUAUAUUAUUACGACAAAC (ssRNA) [Id_ii_S3_P5E.3_K5.2_C5.2_[C-2T]_[T-1C]_H5.2_A5.1_F5.1_T5.2_[T11C]_[A12G]] | 230 nM
ACAAACAAUAUAUUAUUAAAACAAAC (ssRNA) [Id_ii_S3_P5E.3_K5.2_C5.2_[C-2A]_[T-1A]_H5.2_A5.1_F5.1_T5.2_[T11A]] | 550 nM
UCUCUUCGAAUUAUUAUCUCUU (ssRNA) [Ib_S1_P5E.1_K5.1_C5.1_H5.1_[T1C]_[T3A]_A5.1_F5.1_T5.1] | > 2300 nM
ACAAACCUUAUAUUAUUACGACAAAC (ssRNA) [Id_ii_S3_P5E.3_K5.2_C5.2_H5.2_A5.1_F5.1_T5.2_[T11C]_[A12G]] | 406 nM
ACAAACUAUAUAUUAUUACAACAAAC (ssRNA) [Id_ii_S3_P5E.3_K5.2_C5.2_[C-2T]_[T-1A]_H5.2_A5.1_F5.1_T5.2_[T11C]] | 13.5 nM
ACAAACCUUAUAUUAUUAGAACAAAC (ssRNA) [Id_ii_S3_P5E.3_K5.2_C5.2_H5.2_A5.1_F5.1_T5.2_[T11G]] | 108 nM
ACAAACGGACACUUAUUACAACAAAC (ssRNA) [Id_ii_S3_P5E.4_K5.3_C5.2_[C-2G]_[T-1G]_H5.3_A5.1_F5.1_T5.2_[T11C]] | > 2300 nM
ACAAACGCACACUUAUUAAGACAAAC (ssRNA) [Id_ii_S3_P5E.4_K5.3_C5.2_[C-2G]_[T-1C]_H5.3_A5.1_F5.1_T5.2_[T11A]_[A12G]] | > 2300 nM
ACAAACACUAUAUUAUUACAACAAAC (ssRNA) [Id_ii_S3_P5E.3_K5.2_C5.2_[C-2A]_[T-1C]_H5.2_A5.1_F5.1_T5.2_[T11C]] | 459 nM
ACAAACACUAUAUUAUUAAAACAAAC (ssRNA) [Id_ii_S3_P5E.3_K5.2_C5.2_[C-2A]_[T-1C]_H5.2_A5.1_F5.1_T5.2_[T11A]] | 485 nM
ACAAACGAUAUAUUAUUACAACAAAC (ssRNA) [Id_ii_S3_P5E.3_K5.2_C5.2_[C-2G]_[T-1A]_H5.2_A5.1_F5.1_T5.2_[T11C]] | 173 nM

Binder | Kd
ACAAACACUAUAUUAUUACGACAAAC (ssRNA) [Id_ii_S3_P5E.3_K5.2_C5.2_[C-2A]_[T-1C]_H5.2_A5.1_F5.1_T5.2_[T11C]_[A12G]] | 493 nM
UCUCUUUGUAAUAUUAUCUCUU (ssRNA) [Ia_S1_P5E.1_K5.1_C5.1_H5.1_A5.1_[T5A]_F5.1_T5.1] | 6.33 nM
ACAAACCCUAUAUUAUUACCACAAAC (ssRNA) [Id_ii_S3_P5E.3_K5.2_C5.2_[T-1C]_H5.2_A5.1_F5.1_T5.2_[T11C]_[A12C]] | 448 nM
ACAAACUUUAUAUUAUUACCACAAAC (ssRNA) [Id_ii_S3_P5E.3_K5.2_C5.2_[C-2T]_H5.2_A5.1_F5.1_T5.2_[T11C]_[A12C]] | 268 nM
ACAAACGCACACUUAUUAAAACAAAC (ssRNA) [Id_ii_S3_P5E.4_K5.3_C5.2_[C-2G]_[T-1C]_H5.3_A5.1_F5.1_T5.2_[T11A]] | > 2300 nM
ACAAACAAUAUAUUAUUAGUACAAAC (ssRNA) [Id_ii_S3_P5E.3_K5.2_C5.2_[C-2A]_[T-1A]_H5.2_A5.1_F5.1_T5.2_[T11G]_[A12T]] | 118 nM
ACAAACAUUAUAUUAUUAGGACAAAC (ssRNA) [Id_ii_S3_P5E.3_K5.2_C5.2_[C-2A]_H5.2_A5.1_F5.1_T5.2_[T11G]_[A12G]] | 94.3 nM
ACAAACUUUAUAUUAUUACGACAAAC (ssRNA) [Id_ii_S3_P5E.3_K5.2_C5.2_[C-2T]_H5.2_A5.1_F5.1_T5.2_[T11C]_[A12G]] | 381 nM
ACAAACAAUAUAUUAUUAACACAAAC (ssRNA) [Id_ii_S3_P5E.3_K5.2_C5.2_[C-2A]_[T-1A]_H5.2_A5.1_F5.1_T5.2_[T11A]_[A12C]] | 535 nM
ACAAACGAUAUAUUAUUACCACAAAC (ssRNA) [Id_ii_S3_P5E.3_K5.2_C5.2_[C-2G]_[T-1A]_H5.2_A5.1_F5.1_T5.2_[T11C]_[A12C]] | 519 nM
ACAAACUCUAUAUUAUUAAGACAAAC (ssRNA) [Id_ii_S3_P5E.3_K5.2_C5.2_[C-2T]_[T-1C]_H5.2_A5.1_F5.1_T5.2_[T11A]_[A12G]] | 684 nM
ACAAACAUUAUAUUAUUACAACAAAC (ssRNA) [Id_ii_S3_P5E.3_K5.2_C5.2_[C-2A]_H5.2_A5.1_F5.1_T5.2_[T11C]] | 464 nM
ACAAACAAUAUAUUAUUAUCACAAAC (ssRNA) [Id_ii_S3_P5E.3_K5.2_C5.2_[C-2A]_[T-1A]_H5.2_A5.1_F5.1_T5.2_[A12C]] | 576 nM
ACAAACGAUAUAUUAUUAACACAAAC (ssRNA) [Id_ii_S3_P5E.3_K5.2_C5.2_[C-2G]_[T-1A]_H5.2_A5.1_F5.1_T5.2_[T11A]_[A12C]] | 313 nM
ACAAACGAUAUAUUAUUAAAACAAAC (ssRNA) [Id_ii_S3_P5E.3_K5.2_C5.2_[C-2G]_[T-1A]_H5.2_A5.1_F5.1_T5.2_[T11A]] | 704 nM
ACAAACGUUAUAUUAUUACUACAAAC (ssRNA) [Id_ii_S3_P5E.3_K5.2_C5.2_[C-2G]_H5.2_A5.1_F5.1_T5.2_[T11C]_[A12T]] | 580 nM
ACAAACGGACACUUAUUAGCACAAAC (ssRNA) [Id_ii_S3_P5E.4_K5.3_C5.2_[C-2G]_[T-1G]_H5.3_A5.1_F5.1_T5.2_[T11G]_[A12C]] | > 2300 nM
ACAAACCGUAUAUUAUUAGAACAAAC (ssRNA) [Id_ii_S3_P5E.3_K5.2_C5.2_[T-1G]_H5.2_A5.1_F5.1_T5.2_[T11G]] | 15.8 nM
UCUCUUAGUGUUAUUAUCUCUU (ssRNA) [Ib_S1_P5E.1_K5.1_C5.1_H5.1_[T1A]_[A4G]_A5.1_F5.1_T5.1] | > 2300 nM

Binder | Kd
ACAAACAGUAUAUUAUUAGAACAAAC (ssRNA) [Id_ii_S3_P5E.3_K5.2_C5.2_[C-2A]_[T-1G]_H5.2_A5.1_F5.1_T5.2_[T11G]] | 35.5 nM
ACAAACCAUAUAUUAUUAACACAAAC (ssRNA) [Id_ii_S3_P5E.3_K5.2_C5.2_[T-1A]_H5.2_A5.1_F5.1_T5.2_[T11A]_[A12C]] | 201 nM
ACAAACCAUAUAUUAUUACUACAAAC (ssRNA) [Id_ii_S3_P5E.3_K5.2_C5.2_[T-1A]_H5.2_A5.1_F5.1_T5.2_[T11C]_[A12T]] | 168 nM
ACAAACAUUAUAUUAUUAGAACAAAC (ssRNA) [Id_ii_S3_P5E.3_K5.2_C5.2_[C-2A]_H5.2_A5.1_F5.1_T5.2_[T11G]] | 144 nM
ACAAACAGUAUAUUAUUAAGACAAAC (ssRNA) [Id_ii_S3_P5E.3_K5.2_C5.2_[C-2A]_[T-1G]_H5.2_A5.1_F5.1_T5.2_[T11A]_[A12G]] | 36.4 nM
ACAAACAAUAUAUUAUUAAUACAAAC (ssRNA) [Id_ii_S3_P5E.3_K5.2_C5.2_[C-2A]_[T-1A]_H5.2_A5.1_F5.1_T5.2_[T11A]_[A12T]] | 614 nM
ACAAACACUAUAUUAUUAAGACAAAC (ssRNA) [Id_ii_S3_P5E.3_K5.2_C5.2_[C-2A]_[T-1C]_H5.2_A5.1_F5.1_T5.2_[T11A]_[A12G]] | 626 nM
ACAAACUAUAUAUUAUUAAUACAAAC (ssRNA) [Id_ii_S3_P5E.3_K5.2_C5.2_[C-2T]_[T-1A]_H5.2_A5.1_F5.1_T5.2_[T11A]_[A12T]] | 18.3 nM
ACAAACCUUAUAUUAUUAUUACAAAC (ssRNA) [Id_ii_S3_P5E.3_K5.2_C5.2_H5.2_A5.1_F5.1_T5.2_[A12T]] | 208 nM
ACAAACGGACACUUAUUAAGACAAAC (ssRNA) [Id_ii_S3_P5E.4_K5.3_C5.2_[C-2G]_[T-1G]_H5.3_A5.1_F5.1_T5.2_[T11A]_[A12G]] | > 2300 nM
ACAAACACUAUAUUAUUAUCACAAAC (ssRNA) [Id_ii_S3_P5E.3_K5.2_C5.2_[C-2A]_[T-1C]_H5.2_A5.1_F5.1_T5.2_[A12C]] | 370 nM
ACAAACCCUAUAUUAUUAACACAAAC (ssRNA) [Id_ii_S3_P5E.3_K5.2_C5.2_[T-1C]_H5.2_A5.1_F5.1_T5.2_[T11A]_[A12C]] | 452 nM
ACAAACCAUAUAUUAUUACAACAAAC (ssRNA) [Id_ii_S3_P5E.3_K5.2_C5.2_[T-1A]_H5.2_A5.1_F5.1_T5.2_[T11C]] | 240 nM
ACAAACCUUAUAUUAUUAGCACAAAC (ssRNA) [Id_ii_S3_P5E.3_K5.2_C5.2_H5.2_A5.1_F5.1_T5.2_[T11G]_[A12C]] | 59.3 nM
ACAAACCCUAUAUUAUUAAAACAAAC (ssRNA) [Id_ii_S3_P5E.3_K5.2_C5.2_[T-1C]_H5.2_A5.1_F5.1_T5.2_[T11A]] | 673 nM
ACAAACGAUAUAUUAUUAAUACAAAC (ssRNA) [Id_ii_S3_P5E.3_K5.2_C5.2_[C-2G]_[T-1A]_H5.2_A5.1_F5.1_T5.2_[T11A]_[A12T]] | 285 nM
ACAAACCCUAUAUUAUUAAUACAAAC (ssRNA) [Id_ii_S3_P5E.3_K5.2_C5.2_[T-1C]_H5.2_A5.1_F5.1_T5.2_[T11A]_[A12T]] | 464 nM
ACAAACGCACACUUAUUAGAACAAAC (ssRNA) [Id_ii_S3_P5E.4_K5.3_C5.2_[C-2G]_[T-1C]_H5.3_A5.1_F5.1_T5.2_[T11G]] | > 2300 nM
ACAAACCCUAUAUUAUUACUACAAAC (ssRNA) [Id_ii_S3_P5E.3_K5.2_C5.2_[T-1C]_H5.2_A5.1_F5.1_T5.2_[T11C]_[A12T]] | 400 nM
